From doi:10.1101/2023.02.22.529570 (bioRxiv, 2023) come the findings set out here.

The experiment has as its target T1, His-NEON-EBP50 PDZ1PDZ2 (human, UniProt O14745-1 1-298).
T1 sequence: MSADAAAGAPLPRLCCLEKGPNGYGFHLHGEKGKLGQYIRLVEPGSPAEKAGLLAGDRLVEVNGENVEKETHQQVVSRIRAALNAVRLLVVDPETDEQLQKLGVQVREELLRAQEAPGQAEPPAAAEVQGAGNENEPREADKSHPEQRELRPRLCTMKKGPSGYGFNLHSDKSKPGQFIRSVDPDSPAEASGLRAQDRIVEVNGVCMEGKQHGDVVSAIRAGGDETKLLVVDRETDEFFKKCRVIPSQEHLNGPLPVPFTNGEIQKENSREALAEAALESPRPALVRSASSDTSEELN
The experiment in a line: pull-down.

B1: GST-CDHR5 CD (domain or fragment)
chain: RLKCCCGKAPEPQPQGFDNQAFLPDHKANWAPVPSPTHDPKPAEAPMPAEPAPPGPASPGGAPEPPAAARAGGSPTAVRSILTKERRPEGGYKAVWFGEDIGTEADVVVLNAPTLDVDGASDSGSGDEGEGAGRGGGPYDAPGGDDSYI
On to B1, for which the binding result is reported as “binds”.
